Measured values taken from patent US20240199746A1 (published 2024).
Residue numbers refer to the chain shown, from its start.

T1: Ax1 protein, extracellular domain (human, UniProt P30530 26-451)
T1 construct: extracellular domain; also called Axl; Ark
T1 sequence (looked up): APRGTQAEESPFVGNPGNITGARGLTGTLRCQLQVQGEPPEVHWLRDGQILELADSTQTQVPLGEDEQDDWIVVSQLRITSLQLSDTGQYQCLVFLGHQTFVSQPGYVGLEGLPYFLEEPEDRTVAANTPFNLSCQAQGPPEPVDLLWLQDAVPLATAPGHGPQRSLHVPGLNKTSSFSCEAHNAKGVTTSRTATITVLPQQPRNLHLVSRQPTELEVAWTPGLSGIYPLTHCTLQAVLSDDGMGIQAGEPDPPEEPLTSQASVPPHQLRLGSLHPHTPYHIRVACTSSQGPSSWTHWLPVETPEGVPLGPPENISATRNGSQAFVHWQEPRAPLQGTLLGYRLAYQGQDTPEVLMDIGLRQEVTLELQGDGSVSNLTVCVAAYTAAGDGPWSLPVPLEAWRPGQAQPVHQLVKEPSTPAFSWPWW

B1: HC-H100D (antibody, V domains shown)
VH: EVQLVQSGAEVKKPGATVKISCKVSGYSFTGHTMNWIRQPPGKGLEWIGLIKPSNGGTSYNQKFKGRVTISADKSISTAYLQWSSLKASDTAMYYCAHGDYESYFAMDYWGQGTLVTVSS
VL: DIQMTQSPSSLSASVGDRVTITCKASQDVSSAVAWYQQKPGQAPRLLIYWASTRHTGVPSRFSGSGSGTEFTLTISSLQPDDFATYYCQEHFSTPLTFGQGTKVEIK
notes: CPE single point mutant
B2: LC-F092N (antibody, V domains shown)
VH: B1 VH with D100H
VL: B1 VL with F92N
notes: CPE single point mutant
B3: LC-A051P (antibody, V domains shown)
VH: B1 VH with D100H
VL: B1 VL with A51P
notes: CPE single point mutant
B4: HC-S059I (antibody, V domains shown)
VH: B1 VH with S59I, D100H
VL: B1 VL
notes: CPE single point mutant
B5: HC-N035I (antibody, V domains shown)
VH: B1 VH with N35I, D100H
VL: B1 VL
notes: CPE single point mutant
B6: LC-A032L (antibody, V domains shown)
VH: B1 VH with D100H
VL: B1 VL with A32L
notes: CPE single point mutant
B7: LC-H091C (antibody, V domains shown)
VH: B1 VH with D100H
VL: B1 VL with H91C
notes: CPE single point mutant
B8: HC-H100P (antibody, V domains shown)
VH: B1 VH with D100P
VL: B1 VL
notes: CPE single point mutant
B9: LC-F092S (antibody, V domains shown)
VH: B1 VH with D100H
VL: B1 VL with F92S
notes: CPE single point mutant
B10: HC-Y101N (antibody, V domains shown)
VH: B1 VH with D100H, Y101N
VL: B1 VL
notes: CPE single point mutant
B11: HC-M107F (antibody, V domains shown)
VH: B1 VH with D100H, M107F
VL: B1 VL
notes: CPE single point mutant
B12: HC-H100R (antibody, V domains shown)
VH: B1 VH with D100R
VL: B1 VL
notes: CPE single point mutant
B13: HC-S103D (antibody, V domains shown)
VH: B1 VH with D100H, S103D
VL: B1 VL
notes: CPE single point mutant
B14: LC-H091L (antibody, V domains shown)
VH: B1 VH with D100H
VL: B1 VL with H91L
notes: CPE single point mutant
B15: LC-H091S (antibody, V domains shown)
VH: B1 VH with D100H
VL: B1 VL with H91S
notes: CPE single point mutant
B16: HC-T033I (antibody, V domains shown)
VH: B1 VH with T33I, D100H
VL: B1 VL
notes: CPE single point mutant
B17: LC-F092E (antibody, V domains shown)
VH: B1 VH with D100H
VL: B1 VL with F92E
notes: CPE single point mutant
B18: HC-S059T (antibody, V domains shown)
VH: B1 VH with S59T, D100H
VL: B1 VL
notes: CPE single point mutant
B19: LC-F092G (antibody, V domains shown)
VH: B1 VH with D100H
VL: B1 VL with F92G
notes: CPE single point mutant
B20: LC-A051N (antibody, V domains shown)
VH: B1 VH with D100H
VL: B1 VL with A51N
notes: CPE single point mutant
B21: HC-M107E (antibody, V domains shown)
VH: B1 VH with D100H, M107E
VL: B1 VL
notes: CPE single point mutant
B22: LC-H091T (antibody, V domains shown)
VH: B1 VH with D100H
VL: B1 VL with H91T
notes: CPE single point mutant
B23: LC-A034D (antibody, V domains shown)
VH: B1 VH with D100H
VL: B1 VL with A34D
notes: CPE single point mutant
B24: LC-F092C (antibody, V domains shown)
VH: B1 VH with D100H
VL: B1 VL with F92C
notes: CPE single point mutant
B25: LC-A034N (antibody, V domains shown)
VH: B1 VH with D100H
VL: B1 VL with A34N
notes: CPE single point mutant
B26: HC-S103Q (antibody, V domains shown)
VH: B1 VH with D100H, S103Q
VL: B1 VL
notes: CPE single point mutant
B27: LC-A032M (antibody, V domains shown)
VH: B1 VH with D100H
VL: B1 VL with A32M
notes: CPE single point mutant
B28: LC-A034Q (antibody, V domains shown)
VH: B1 VH with D100H
VL: B1 VL with A34Q
notes: CPE single point mutant
B29: LC-A051I (antibody, V domains shown)
VH: B1 VH with D100H
VL: B1 VL with A51I
notes: CPE single point mutant
B30: LC-F092D (antibody, V domains shown)
VH: B1 VH with D100H
VL: B1 VL with F92D
notes: CPE single point mutant
B31: HC-T030A (antibody, V domains shown)
VH: B1 VH with T30A, D100H
VL: B1 VL
notes: CPE single point mutant
B32: HC-P053N (antibody, V domains shown)
VH: B1 VH with P53N, D100H
VL: B1 VL
notes: CPE single point mutant
B33: HC-Y104P (antibody, V domains shown)
VH: B1 VH with D100H, Y104P
VL: B1 VL
notes: CPE single point mutant

The binders below were run against T1, Ax1 protein, extracellular domain (assay: ELISA, mutant diluted 1:3).
Text: (§1) The DNA encoding the wild-type antibody was evolved to generate a mutant antibody library using Comprehensive Positional Evolution (CPE), which each position in the template antibody is randomized one at a time. Each mutant antibody in the library has only one single point mutation. The mutant antibodies in the library were generated by simultaneously screening for selective binding affinity to Ax1 at pH 6.0 over pH 7.4 by ELISA. Two mutant antibody dilutions were used: 1:3 and 1:9 dilutions.

Binder | Affinity ELISA CPE mutant ratio (1:3, pH 6.0/7.4)
B1 | 2.42
B2 | 1.93
B3 | 1.92
B4 | 30.5
B5 | 2.81
B6 | 1.9
B7 | 4
B8 | 2.58
B9 | 3.18
B10 | 2.17
B11 | 20.6
B12 | 1.88
B13 | 4.24
B14 | 2.17
B15 | 1.76
B16 | 1.59
B17 | 1.76

Binder | Affinity ELISA CPE mutant ratio (1:3, pH 6.0/7.4)
B18 | 1.02
B19 | 3.69
B20 | 1.41
B21 | 2.16
B22 | 3.78
B23 | 3
B24 | 3.86
B25 | 2.63
B26 | 0.912
B27 | 4.76
B28 | 2
B29 | 2.24
B30 | 2.97
B31 | 1.29
B32 | 1.4
B33 | 2.54

These binders were tested against T1, Ax1 protein, extracellular domain (assay: ELISA, mutant diluted 1:9).
Text: as §1

Binder | Affinity ELISA CPE mutant ratio (1:9, pH 6.0/7.4)
B1 | 3.09
B2 | 2
B3 | 1.57
B4 | 2.06
B5 | 1.12
B6 | 2.27
B7 | 3.02
B8 | 1.18
B9 | 2.94
B10 | 2.91
B11 | 1.09
B12 | 2.51
B13 | 2.23
B14 | 2.44
B15 | 1.34
B16 | 1
B17 | 2

Binder | Affinity ELISA CPE mutant ratio (1:9, pH 6.0/7.4)
B18 | 1.93
B19 | 4.76
B20 | 2.2
B21 | 1.36
B22 | 3.7
B23 | 2.6
B24 | 4.58
B25 | 2.4
B26 | 2.26
B27 | 2.92
B28 | 1.41
B29 | 2.14
B30 | 2.94
B31 | 1.76
B32 | 1.89
B33 | 2.42
